± gives the standard deviation.
Assay: protein stability index of a GFP-peptide fusion (GPS, HEK-293T) (PSI 1-6); higher = more stable
[1] = treatment: DMSO, c terminus: a fixed tail appended
[2] = treatment: MLN4924 1 uM, 8 h, c terminus: a fixed tail appended
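Note: 24-mer peptide tiles fused after GFP, lentivirally expressed, FACS-sorted into six equal bins by GFP/DsRed ratio, decoded by Illumina sequencing, PSI is the read-weighted mean bin number.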

Sequence | protein stability index [1] | protein stability index [2] | protein stability index (treatment: DMSO, c terminus: native) | protein stability index (treatment: MLN4924 1 uM, 8 h, c terminus: native)
ELTATFTKFDRDGNRILDEKEQEK [PKD2L1] | 5.38 ± 0.11 | 5.17 ± 0.18 |  | 
ILREFEELHRRLDEEQQVLLSRLE [TRIM39] | 3.43 ± 0.3 | 3.63 ± 0.12 |  | 
LFFTALMITVPIGLYFTTKSYIFE [VMA21] | 2.73 ± 0.46 | 2.58 ± 0.055 |  | 
LLTRKVICKSDAPTGDVLLDEALK [GOLPH3] | 2.51 ± 0.25 | 2.91 ± 0.39 |  | 
EESRFCDAHLVLDGEEIPVQKNIL [GAN] | 4.73 ± 0.22 | 4.68 ± 0.073 |  | 
RWLMVKIFLILIVFFIIFVVFLA [STX5] |  |  | 4.3 ± 0.23 | 4.31 ± 0.33
FLAENSAFPKMALQAKQDGKKDVS [LCOR] | 4.23 ± 0.29 | 4.36 ± 0.36 |  | 
KAELGALPHDFIDSLEKTDDDKYK [NLN] | 5.31 ± 0.2 | 5.2 ± 0.32 |  | 
STLPRSGSSGGQQPSGMKEGVKRY [CHCHD6] | 4.49 ± 0.35 | 4.8 ± 0.29 |  | 
RNSGPVVEKLKQMQEFFGLKVTGK [MMP1] | 3.16 ± 0.079 | 3.14 ± 0.39 |  | 
NDVRQSANYTCVAMSTLGVIEAIA [PTPRD] | 2.3 ± 0.34 | 2.19 ± 0.3 |  | 
GHEEMVALLLGQGANINAQTEETQ [ANKRD17] | 4.81 ± 0.28 | 4.96 ± 0.19 |  | 
MAAAVAAAPGALGSLHAGGARLVA [AUH] | 2.8 ± 0.58 | 3.12 ± 0.39 |  | 
FNGKGKKIRKPRTIYCSLQLQALN [DLX1] | 2.38 ± 0.5 | 2.75 ± 0.31 |  | 
NSGHTIFNDPFFIVETVCIVWFSF [KCNA4] | 3.49 ± 0.58 | 3.51 ± 0.31 |  | 
TIEELQQKILCSKSENARLVVQID [KRT33B] | 3.38 ± 0.19 | 3.28 ± 0.53 |  | 
SKVVVPPLPGKAFLRQLPFRGDDG [SNX3] | 3.45 ± 0.17 | 3.56 ± 0.21 |  | 
YHTSQSGDEMTSLSEYVSRMKETQ [HSP90AB1] | 3.9 ± 0.25 | 3.96 ± 0.23 |  | 
LTMNSEDERRDAEERASLAGNRNS [KCNK9] | 5.56 ± 0.082 | 5.5 ± 0.22 |  | 
LQQIQGLIGGLEAQLSELRCEMEA [KRT15] | 3.52 ± 0.43 | 3.67 ± 0.41 |  | 
KLWNPRNFKAHVSPHEMLQAVVLC [USP39] | 2.63 ± 0.57 | 2.88 ± 0.47 |  | 
VRTLEGVFQHHQYLSPLERKRLAR [VENTX] | 3.23 ± 0.23 | 3.54 ± 0.47 |  | 
SIVIFCLETLPEFRDEKDYPASTS [KCNA3] | 2.4 ± 0.54 | 2.19 ± 0.45 |  | 

Sequence | protein stability index [1] | protein stability index [2] | protein stability index (treatment: DMSO, c terminus: native) | protein stability index (treatment: MLN4924 1 uM, 8 h, c terminus: native)
SIYLVGGYSWSMGAYKSSTICYCP [KLHL14] | 2.87 ± 0.46 | 2.53 ± 0.87 |  | 
FWSVMFFLMLINLGLGSMIGTMAG [SLC6A17] | 3.2 ± 0.55 | 3.49 ± 0.57 |  | 
VNLFLHFTVNPKPRVEYIDRPRCC [BTBD1] | 3.43 ± 0.18 | 3.12 ± 0.28 |  | 
RLNYDRKELEKRREESQHEIKDVL [PPFIA4] | 3.65 ± 0.42 | 4.76 ± 0.3 |  | 
LKSSGLCESLTYGLPFILRPTSCW [M1AP] | 2.9 ± 0.31 | 3.06 ± 0.73 |  | 
VGSLPVIVVGRLKVALEPQLWELG [LPCAT4] | 2.74 ± 0.036 | 2.88 ± 0.6 |  | 
GRIACANVLSDLYAMGITECDNML [SEPHS2] | 2.4 ± 0.41 | 2.43 ± 0.32 |  | 
PPPPPNEINPPPHTMEEEEDDDWG [EIF5] | 5.48 ± 0.17 | 5.61 ± 0.22 |  | 
GTDSAGPKTVPSHVFSELWDLSEA [ELOA2] | 3.95 ± 0.25 | 4.39 ± 0.38 |  | 
DITPLMAAANGGHVKIVKLLLAHK [ANKRD17] | 2.27 ± 0.2 | 2.33 ± 0.41 |  | 
LRRHAGLLDGLARRVGILGEELAD [SCARA5] | 3.37 ± 0.17 | 3.34 ± 0.18 |  | 
KLKNTVTIQQEKLLAEKEEKLQKE [SASS6] | 5.1 ± 0.46 | 5.2 ± 0.31 |  | 
PEGGMEQALAGASSGRELGRPKEL [ZNF263] | 4.92 ± 0.11 | 5.29 ± 0.17 |  | 
RLMRDMAQLRLQLEVSQLEGSLQQ [SMG5] | 2.39 ± 0.43 | 2.6 ± 0.3 |  | 
KKNSSPPLSLYGQLLWREFFYTAA [CRY1] | 2.42 ± 0.46 | 2.67 ± 0.63 |  | 
RRILDELTLCKSDLESQVESLREE [KRT34] | 4.82 ± 0.14 | 4.75 ± 0.18 |  | 
SARYVLPDEAARARLLQEGGGGVA [DUSP5] | 4.33 ± 0.19 | 4.13 ± 0.17 |  | 
RVEDAFYTLVREIRQYRLKKISKE [KRAS] | 2.3 ± 0.17 |  |  | 
NNEEQRSGLIYLTNHIAPHARNGL [IKZF1] | 3.34 ± 0.33 | 3.52 ± 0.2 |  | 
LLRPKYRAPQGCSGVDECARQEGL [PBXIP1] | 3.56 ± 0.23 | 3.65 ± 0.37 |  | 
LTEQYTVTGLMEATQMMVDIDGDV [RHOBTB2] | 4.66 ± 0.33 | 4.63 ± 0.29 |  | 
HLNETVKAPDIECVLRCSVLEIEQ [FEM1B] | 3.07 ± 0.49 | 3.13 ± 0.44 |  | 
